# From the RNAGym collection of RNA variant scans (doi:10.1073/pnas.2313332121)
# Variants at the floor of the assay were thinned out.
# B1: TPR 5TU (parent)
# chain: GGAUCUUCUCGAUCUAACAAAAAAGACAAAUCUGCCACAAAGCUUGAGAGCAUCUUCGGAUGCAGAGGCGGCAGCCUUCGGUGGCGCGAUAGCGCCAACGUUCUCAACUAUGACACGCAAAACGCGUGCUCCGUUGAAUGGAGUUUAUCAUG
# Variants of: B1
# Experiment: polymerase ribozyme fitness, log enrichment relative to wild type (log ratio); higher = more active; in vitro selection for triplet polymerase activity
# How it was run: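 Streptavidin-bead capture of gel-excised extended constructs, followed by RT-PCR, closed a single triplicate in vitro selection round. That round began by annealing PCR-built, transcribed mutant libraries of each subunit of a heterodimeric triplet polymerase ribozyme with a biotinylated primer, the partner subunit and triplets, then incubating them frozen at −7 °C. After Illumina sequencing of inputs and outputs, genotypes needed ≥10 input reads and ≥1 read per output. Fitness is the base-2 logarithm of genotype enrichment over wild-type enrichment, using inverse-variance-weighted replicate averages.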
row,Variant,polymerase ribozyme fitness (log ratio)
1,A40G A49G,-3.58
2,A40C A52G G80U C114G G128U G133U,≤ -4.2
3,G42C A49C,≤ -4.2
4,G42A C51U A64C G80A U127A,≤ -4.2
5,G42A A52G G70C G141C,≤ -4.2
6,C43A G83C U90G G140U,≤ -4.2
7,A40G U56A G67A G83A,≤ -4.2
8,A40C U56G A64U C87U G143U,≤ -4.2
9,A41C C96A U146A,-0.97
10,A41U A47U C93G,-4.14
11,A41C U102A,-1.07
12,A41C C57U U82C G141A,-1.09
13,A41G G88U,-3.82
14,G42A C75G C96G,≤ -4.2
15,C43U G86U C125A,≤ -4.2
16,A41U C57U C85U,-1.12
17,A41G U104G C105U A122C,-1.26
18,A41G C85A U130G G143U A147G,≤ -4.2
19,C43U U82G U101G,-4.04
20,A41U C95U A98C,-1.48
21,G42U G59U G92U G126A U135A U144A,≤ -4.2

row,Variant,polymerase ribozyme fitness (log ratio)
1,G42C U61A G88A C95U U104G,≤ -4.2
2,C43G U55A C96A A98C A121U,≤ -4.2
3,A41C U55A C93A,-3.32
4,A41U G62C G136U,-3.69
5,A40G A64U U134G A142C,≤ -4.2
6,A41C C51U,-0.722
7,G42C C116G A120U A138G G141U G143A,≤ -4.2
8,A41C U56A C87U U135G,≤ -4.2
9,A41U U82C C87U C125G G126C U144G,-2.6
10,A40U G92A A98U U145G A147U,-4.09
11,A40C U55G C85U,0.238
12,A40U G92U A98C C103G A120C U134A,-3.87
13,A41G G42A G92C U111C A113U C125G,≤ -4.2
14,A40C U109C C116U C131U A147U,-2.36
15,A41C G59A G86U,-2.6
16,G42C C54A A64C U77A G83C G126A U145A,≤ -4.2
17,A40G U90A,≤ -4.2
18,A40C G67C G71C A98G C103A C105G,≤ -4.2
19,C43G G88A C95U C105A,≤ -4.2
20,A41C C43U C125U,≤ -4.2
21,C43A G50A A106G,≤ -4.2

row,Variant,polymerase ribozyme fitness (log ratio)
1,A41U G50A A52C C93U G100A A119C,≤ -4.2
2,A41U G65U G141C,≤ -4.2
3,A41U C51A G86C G88C,≤ -4.2
4,A40U G70C C79G A106G U135C U145G A150C,≤ -4.2
5,C43A C69G G92C,≤ -4.2
6,G42C U44A U90G G140U A147U,≤ -4.2
7,A41C A52G G86U,-2.67
8,A41C C85U,-1.29
9,A40G A41U U53A C123A C125U U134G,-3.73
10,A41C G50A G86A A98G,-3.62
11,C43G A49C C76A G84A C105G,≤ -4.2
12,A40U C43U G70A U78G C87A A147G,≤ -4.2
13,G42C C43U C54U A98G A120G,≤ -4.2
14,C43G C95U C96A,-4.15
15,G42C G86U U109G G141U,≤ -4.2
16,A40G G92U C108U G124A G128U,≤ -4.2
17,A40U U56A,-0.0589
18,A40G C54A G68A G92A,≤ -4.2
19,G42C G92A,≤ -4.2
20,A40C U45A C54U,≤ -4.2
21,A41G G50C C93G C103U C123A U127C,≤ -4.2

row,Variant,polymerase ribozyme fitness (log ratio)
1,A41C C132A,-2.55
2,A41C U56A C57A A115U C116U,-2.62
3,C43G C57A A60U G141C,-4.18
4,A40U U55A G58C C85G A119U,-2.59
5,C43A C87U G136C,≤ -4.2
6,C43G A49C G68C C72U A97U,≤ -4.2
7,A40U U55G C96G,-0.541
8,A41G G81C U82C,-0.145
9,A41G A89G G92U G100A G117C G133A G143U,≤ -4.2
10,A41U G92U,-1.05
11,A41U G71A G83C G84U U145C A147U,≤ -4.2
12,A40U C57U U61A U82G A98C A106U C116U A121U C132U A138C,≤ -4.2
13,C43U A47C U56A U78G C87G,≤ -4.2
14,C43A U61A U127C C132U U145G,≤ -4.2
15,G42A G83U A97U,≤ -4.2
16,G42A A142C,-4.17
17,A41C C87G C114U,≤ -4.2
18,A41C G46A C57U C95U A115G,-3.25
19,A41G U45A C54G G92U,-2.74
20,A40U G141U,0.96
